This experiment concerns the target various tetraspanins. As to the kind of experiment: co-IP.

B1: Tumour-associated antigen L6 (L6-Ag), endogenous (natural protein)
chain: MCYGKCARCIGHSLVGLALLCIAANILLYFPNGETKYASENHLSRFVWFFSGIVGGGLLMLLPAFVFIGLEQDDCCGCCGHENCGKRCAMLSSVLAALIGIAGSGYCVIVAALGLAEGPLCLDSLGQWNYTFASTEGQYLLDTSTWSECTEPKHIVEWNVSLFSILLALGGIEFILCLIQVINGVLGGICGFCCSHQQQYDC
Regarding B1, the percent of the total L6-Ag co-immunoprecipitated (% of the total L6-Ag) fell in the range of 10 to 15.

The values are drawn from publication PMC2396850.
